Measured values from patent publication US5723579A, “Fibrinogen binding peptides” (Bayer Corporation, priority 1996, dated 1998).
One block for each substance: values may come before it. No end group written: not given here.

What was measured:
fibrinogen [1] = molecular target: T1, fibrinogen (Homo sapiens, UniProt P02671+P02675+P02679); assay: Confirmatory binding assay in column chromatographic format: fibrinogen applied to peptide resins, NaCl wash and acid eluate quantified by A280; details: for 2% Acetic Acid Eluate, A280: peptide synthesized on A-Totda-Toyopearl, Table 2; for 1 M NaCl Eluate, integration of the absorbance at 280 nm / 2% Acetic Acid Eluate, integration of the absorbance at 280 nm: truncations on A-Totda-Toyopearl, Table 6
T1 construct: purchased Sigma Chemical Co. (St. Louis, Mo.) and Chromogenix AB (Molndal, Sweden)
T1 sequence (P02671 20-644 isoform P02671-2 limits assumed): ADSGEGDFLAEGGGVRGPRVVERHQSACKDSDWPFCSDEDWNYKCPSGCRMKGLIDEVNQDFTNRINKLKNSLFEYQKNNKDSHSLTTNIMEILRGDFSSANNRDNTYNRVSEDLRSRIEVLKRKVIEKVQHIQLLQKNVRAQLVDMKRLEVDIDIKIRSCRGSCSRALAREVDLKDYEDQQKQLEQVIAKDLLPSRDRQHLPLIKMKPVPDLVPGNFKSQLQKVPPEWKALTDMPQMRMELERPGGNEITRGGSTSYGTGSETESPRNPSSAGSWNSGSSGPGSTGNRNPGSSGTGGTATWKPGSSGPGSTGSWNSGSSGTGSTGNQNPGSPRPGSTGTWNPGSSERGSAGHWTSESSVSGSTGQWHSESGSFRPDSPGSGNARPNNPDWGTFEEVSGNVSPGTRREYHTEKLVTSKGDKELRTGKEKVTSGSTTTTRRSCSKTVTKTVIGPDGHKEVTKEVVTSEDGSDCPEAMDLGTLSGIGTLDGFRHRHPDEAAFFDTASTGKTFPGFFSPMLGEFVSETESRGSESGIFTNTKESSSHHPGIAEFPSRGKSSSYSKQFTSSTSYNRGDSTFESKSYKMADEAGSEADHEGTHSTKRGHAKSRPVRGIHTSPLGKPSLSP
T1 sequence (P02675 31-491): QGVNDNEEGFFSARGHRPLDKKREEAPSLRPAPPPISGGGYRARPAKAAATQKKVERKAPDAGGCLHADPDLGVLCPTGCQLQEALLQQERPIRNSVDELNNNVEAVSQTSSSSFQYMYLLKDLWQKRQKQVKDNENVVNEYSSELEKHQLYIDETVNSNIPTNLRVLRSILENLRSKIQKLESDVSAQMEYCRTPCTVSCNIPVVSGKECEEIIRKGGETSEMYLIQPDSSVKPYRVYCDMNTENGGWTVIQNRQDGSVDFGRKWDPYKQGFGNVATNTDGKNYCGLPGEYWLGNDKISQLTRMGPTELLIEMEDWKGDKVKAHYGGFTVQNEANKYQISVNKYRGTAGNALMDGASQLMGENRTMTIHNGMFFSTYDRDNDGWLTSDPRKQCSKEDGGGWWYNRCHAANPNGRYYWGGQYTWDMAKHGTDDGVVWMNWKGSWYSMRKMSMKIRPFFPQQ
T1 sequence (P02679 27-453): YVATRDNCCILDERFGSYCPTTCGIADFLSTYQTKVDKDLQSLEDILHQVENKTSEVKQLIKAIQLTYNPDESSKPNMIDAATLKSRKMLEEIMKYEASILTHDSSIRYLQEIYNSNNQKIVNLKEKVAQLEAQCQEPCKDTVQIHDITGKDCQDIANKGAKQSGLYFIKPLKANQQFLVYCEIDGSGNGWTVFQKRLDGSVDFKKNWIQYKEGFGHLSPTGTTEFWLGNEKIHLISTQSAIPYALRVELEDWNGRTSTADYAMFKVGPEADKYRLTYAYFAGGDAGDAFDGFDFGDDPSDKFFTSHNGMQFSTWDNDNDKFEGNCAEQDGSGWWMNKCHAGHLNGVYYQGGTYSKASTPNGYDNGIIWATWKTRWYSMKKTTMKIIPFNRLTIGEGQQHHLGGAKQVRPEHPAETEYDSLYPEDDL
Method: Confirmatory binding assays were performed in a column chromatographic format on a microbore HPLC using individual peptide sequences synthesized directly onto the Toyopearl 650M Chelate resin which had been modified with Totda followed by an alanine residue (A-Totda-Toyopearl), at a final substitution density of 0.2 mmole/g resin. […] The endpoint was a dose-dependent increase in the acid eluate in the fibrinogen contactings, and quantification was by integration of the absorbance at 280 nm (Table 2).
Peptides PLLVPL and FLLVPL, with and without an N-acetylated amino terminus, were synthesized directly onto Ala-Totda-Toyopearl at a density of approximately 0.2 mmole/g resin. The ability of these resins to bind fibrinogen was determined as above. An unblocked (free) amino terminus was required for binding fibrinogen to PLLVPL-A-Totda-Toyopearl (Table 5) (SEQ ID NO:2). Similar results were obtained in a separate experiment by using FLLVPL-A-Totda-Toyopearl (Table 5) (SEQ ID NO:1).
Truncations from the carboxyl- and amino- termini of PLLVPL and FLLVPL (SEQ ID NOS 2 and 1, respectively) synthesized directly on A-Totda-Toyopearl resin in order to identify the minimum sequence necessary for binding.

fibrinogen [2] = molecular target: T1, fibrinogen; assay: Characterization of binding interaction: fibrinogen (25 mg) on 5 ml FLLVPL resin column, binding and elution under varied conditions
Method: Peptide FLLVPL was synthesized directly on A-Totda-Toyopearl at a density of 0.2 mmole/g resin. A column of dimensions 1.0×6.4 cm (approximately 5 ml column volume) was equilibrated with either 10 mM HEPES or 10 mM sodium acetate, pH 6.8, 1.0 mM EGTA and either 0.1, 0.2 or 1.0M NaCl. Fibrinogen (25 mg; 5.0 ml) was applied to the column in 10 mM sodium acetate, pH 6.8 and 1 mM EGTA containing 0.1M NaCl.
Fibrinogen (25 mg; 5.0 ml) was applied to the column in 10 mM sodium acetate, pH 6.8 and 1 mM EGTA containing 0.1M NaCl.
No elution of fibrinogen (applied to the column in 10 mM sodium acetate, pH 6.8 and 1 mM EGTA containing 0.1M NaCl) was observed by using the hydrophilic compound, polyethylene glycol (10%). Only approximately 8 percent of the applied fibrinogen was eluted by increasing the pH to 10 with 10 mM sodium borate. Further increases in pH with a linear gradient (pH 6.8 to 12.0) released approximately 25 percent of the fibrinogen.
In order to assess further the contribution of hydrophobic interactions to the binding mechanism of FLLVPL (SEQ ID NO.:1) to fibrinogen, fibrinogen (25 mg; 5.0 ml) was applied to the peptide under high salt conditions favorable to hydrophobic bonding and release under low ionic strength. The peptide resin was equilibrated with 10 mM sodium acetate, 1.0M NaCl, and 1.0 mM EGTA, pH 6.8. Five milliliters of a solution of fibrinogen (5 mg/ml) in the same buffer was applied to the column, and washed with two column volumes of the same buffer. The resin was then contacted with 10 column volumes of 10 mM sodium acetate, pH 4.0 followed by 2% acetic acid (4 column volumes). […] Low ionic strength and low pH (4.0) released approximately 78.3 percent of the protein. However, only 5% of the applied protein was eluted in a second experiment when the 10 mM sodium acetate, pH 4.0 solution contained 0.1M NaCl. Acid treatment released the remainder of the recovered protein in both experiments.

fibrinogen [3] = molecular target: T1, fibrinogen; assay: Isothermal titration calorimetry of peptide binding to purified fibrinogen; details: solution phase binding, soluble peptide; 30° C., 30 mM phosphate buffer, pH 7.0
Method: Isothermal titration colorimetry was performed using either purified, soluble peptides (5 mM) or peptides synthesized directly on A-Totda-Togopearl (1.4mM) and with purified fibrinogen (50 μM) by a modification of the technique of Tyler-Cross et at. (1993). All measurements were performed at 30° C. in 30 mM phosphate buffer, pH 7.0 with an Omega titration colorimeter (Microcal, Inc., Northampton, Mass.).
Solution phase binding isotherms were performed on the purified soluble peptides and purified fibrinogen by using isothermal titration calorimetry (Table 3). […] A change from P to F at the amino terminus lowered the dissociation constant over 150-fold. PLLVPL (SEQ ID NO:2) bound to approximately 3 to 4 sites per fibrinogen molecule. […] Both peptide binding reactions were endothermic as indicated by the positive enthalpy (ΔH), and were thermodynamically favorable (negative ΔG) under the conditions tested. Unusually high entropic terms indicate a conformational change may be driving the association of peptide with fibrinogen.

Substance: AALVPL: peptide sequence AALVPL synthesized on A-Totda-Toyopearl (not fully specified (C-terminus))
2% Acetic Acid Eluate, A280 (fibrinogen [1]; 250 μg fibrinogen applied): 0.02
2% Acetic Acid Eluate, A280 (fibrinogen [1]; 500 μg fibrinogen applied): 0.09
2% Acetic Acid Eluate, A280 (fibrinogen [1]; 1000 μg fibrinogen applied): 0.12

Substance: PALVPL: peptide sequence PALVPL synthesized on A-Totda-Toyopearl (not fully specified (C-terminus))
2% Acetic Acid Eluate, A280 (fibrinogen [1]; 250 μg fibrinogen applied): 0.01
2% Acetic Acid Eluate, A280 (fibrinogen [1]; 500 μg fibrinogen applied): 0.06
2% Acetic Acid Eluate, A280 (fibrinogen [1]; 1000 μg fibrinogen applied): 0.13

Substance: Phe-Ala-Leu-Val- Pro-Leu (FALVPL; not fully specified (C-terminus); printed as Phe-Ala-Leu-Val-Pro-Leu)
2% Acetic Acid Eluate, A280 (fibrinogen [1]; 250 μg fibrinogen applied): 0.72
2% Acetic Acid Eluate, A280 (fibrinogen [1]; 500 μg fibrinogen applied): 1.35
2% Acetic Acid Eluate, A280 (fibrinogen [1]; 1000 μg fibrinogen applied): 2.78

Results, then the substance that gave them:

2% Acetic Acid Eluate, A280 (fibrinogen [1]; 250 μg fibrinogen applied): 0.02
2% Acetic Acid Eluate, A280 (fibrinogen [1]; 500 μg fibrinogen applied): 0.09
2% Acetic Acid Eluate, A280 (fibrinogen [1]; 1000 μg fibrinogen applied): 0.12
Substance: ALLVPL: peptide sequence ALLVPL synthesized on A-Totda-Toyopearl (not fully specified (C-terminus))

applied protein eluted (fibrinogen [2]; 10 mM sodium acetate, pH 4.0 containing 0.1M NaCl (second experiment)): 5%
applied protein (A280) not interacting with the column, recovered in flow through and wash (fibrinogen [2]; applied in 10 mM sodium acetate, 1.0M NaCl, 1.0 mM EGTA, pH 6.8): Approximately 7.2%
release of the applied protein (fibrinogen [2]; elution with ionic detergent (2% sodium cholate)): 14%
release of the applied protein (fibrinogen [2]; elution with nonionic detergent (5% Tween-20) in the binding buffer): 40%
fibrinogen released (fibrinogen [2]; linear pH gradient (pH 6.8 to 12.0)): approximately 25%
protein released (fibrinogen [2]; low ionic strength, 10 mM sodium acetate, pH 4.0, after high salt application): approximately 78.3%
applied absorbance (280 nm) that failed to bind the column (fibrinogen [2]; pH 6.8, 1.0 mM EGTA, column equilibrated with 0.1, 0.2 or 1.0M NaCl): 5 to 8%
release of fibrinogen (fibrinogen [2]; pH gradient from 6.8 to 4.0, release at pH 4.2): approximately 66%
applied fibrinogen eluted (fibrinogen [2]; pH increased to 10 with 10 mM sodium borate): approximately 8%
Kd (fibrinogen [3]): 4.5 µM
Substance: FLLVPL-NH2 [FLLVPL, Phe-Leu-Leu-Val-Pro-Leu]

Kd (fibrinogen [3]): 688 µM
Substance: PLLVPL-NH2 [PLLVPL, Pro-Leu-Leu-Val-Pro-Leu]

1 M NaCl Eluate, integration of the absorbance at 280 nm (fibrinogen [1]; 250 μg fibrinogen applied): 0.00 ×10^6
2% Acetic Acid Eluate, integration of the absorbance at 280 nm (fibrinogen [1]; 250 μg fibrinogen applied): 1.51 ×10^6
1 M NaCl Eluate, integration of the absorbance at 280 nm (fibrinogen [1]; 500 μg fibrinogen applied): 0.00 ×10^6
2% Acetic Acid Eluate, integration of the absorbance at 280 nm (fibrinogen [1]; 500 μg fibrinogen applied): 1.79 ×10^6
1 M NaCl Eluate, integration of the absorbance at 280 nm (fibrinogen [1]; 1000 μg fibrinogen applied): 0.50 ×10^6
2% Acetic Acid Eluate, integration of the absorbance at 280 nm (fibrinogen [1]; 1000 μg fibrinogen applied): 4.99 ×10^6
Substance: Phe-Leu-Leu-Val (FLLV; printed: Phe-Leu-Leu-Val) [truncation of FLLVPL on A-Totda-Toyopearl resin]
